# Source: US20110059076A1, “HUMAN SERUM ALBUMIN LINKERS AND CONJUGATES THEREOF” (priority 2008, published 2011)
# Entries after “also recorded” stand apart in the source; their conditions may differ.
# Key:
# BT474 breast tumor cells = assay: cell cycle analysis by propidium iodide flow cytometry; format: cell-based; conditions: 72 hours treatment
# Experimental: After the end of treatment, cells are trypsinized, gently resuspended in hypotonic solution containing propidium iodide and single cells are analyzed by flow cytometry. Cell cycle distribution in G1 and S phases is measured using curve-fitting algorithms designed for cell cycle analysis (FlowJo software cell cycle platform).
# After the end of treatment, cells are trypsinized, gently resuspended in hypotonic solution containing propidium iodide and single cells are analyzed by flow cytometry. Cell cycle distribution in G1 and S phases is measured using curve-fitting algorithms designed for cell cycle analysis (FlowJo software cell cycle platform, Tree Star, Inc.). […] In a second experiment, the number of cell colonies formed following treatment with B2B3-1 is studied. […] Media only or media including treatment is replenished every 3 days. After 14 days the number of colonies is counted and compared to untreated cells.
# [1] = system: ErbB3 phosphorylation in BT-474-M3 cells; assay: HRG-induced ErbB3 phosphorylation ELISA in BT-474-M3; format: cell-based, human; conditions: BT-474-M3, dose titration 24 hours, 5 nM HRG 1β EGF domain 10 minutes
# Experimental: Except as noted, ELISA reagents for total and phospho-ErbB3 ELISAs are purchased from R&D Systems as DUOSET kits. 96-well NUNC MAXISORB plates are coated with 50 μl of an antibody and incubated overnight at room temperature. Next morning, plates are washed 3 times with 1000 μl/well in a BIOTEK plate washer with Dulbecco's phosphate buffered saline without calcium or magnesium (PBS) with added Tween detergent (PBST) (0.05% Tween-20). […] The plates are washed 3 times with 1000 μl/well in the BIOTEK plate washer with PBST. Cells are grown at 37° C. and 5% carbon dioxide, washed with cold PBS, then harvested with mammalian protein extract (MPER) lysis buffer (Pierce, 78505) to which 150 mM NaCl, 5 mM sodium pyrophosphate, 10 uM bpV (phen), 50uM phenylarsine, 1 mM sodium orthovanadate, and protease inhibitor cocktail (Sigma, P2714) is added. 50 μL of cell lysates and standards diluted in 50% Lysis buffer and 1% BSA are used in duplicates for further processing. Samples are incubated for 2hrs at 4° C. on a plate shaker and washed as before. About 50 μl of a detection antibody diluted in 2% BSA, PBST is added and incubated for about 1-2 hrs at room temperature. […] About 50 μL of SUPERSIGNAL ELISA Pico (Thermo Scientific) substrate is added and the plate is read using a FUSION plate reader. […]
# [2] = system: AKT phosphorylation in BT-474-M3 cells; assay: HRG-induced AKT phosphorylation ELISA in BT-474-M3; format: cell-based, human; conditions: BT-474-M3, dose titration 24 hours, 5 nM HRG 1β EGF domain 10 minutes
# [3] = target: T1, ErbB2-associated complexes in BT474 breast cancer cells (Homo sapiens, UniProt P04626+P21860); assay: immunoprecipitation-Western blot of ErbB2-associated complexes; format: cell-based; conditions: BT474, dose range 24 hours, heregulin stimulation
# T1 construct: endogenous in cells; host or cells: BT474 breast cancer cells
# Description: ErbB2-associated complexes are isolated from cell lysates using an anti-ErbB2 antibody followed by Western blot analysis to detect pErbB2 and pErbB3 and the corresponding total protein levels.
# [4] = target: T2, recombinant extracellular domain of ErbB3 (Homo sapiens, UniProt P21860); assay: specificity competition ELISA on ErbB3-coated plates; conditions: half-maximal binding concentration of B2B3-1
# T2 construct: Plates are coated with the recombinant extracellular domain of either ErbB2 or ErbB3
# Description: Plates are coated with the recombinant extracellular domain of either ErbB2 or ErbB3.
# [5] = system: Calu-3 (human lung adenocarcinoma) xenograft; assay: Calu-3 xenograft model; format: in vivo, mice; conditions: Calu-3, 30 mg/kg every 3 days
# Description: Calu-3 (human lung adenocarcinoma; FIG. 17A), SKOV-3 (human ovarian adenocarcinoma; FIG. 17B), NCI-N87 (human gastric carcinoma; FIG. 17C), ACHN (human kidney adenocarcinoma; FIG. 17D), and MDA-MB-361 (human breast adenocarcinoma; FIG. 17E) xenograft model are shown.
# [6] = system: ErbB3 phosphorylation in 9 tumor cell lines; assay: pErbB3 inhibition ELISA across 9 tumor cell lines versus ErbB2 expression; format: cell-based; conditions: 5×10^4 to 2.4×10^6 ErbB2 receptors/cell
# [7] = system: p27^kip1 in BT474-M3 breast tumor xenografts; assay: p27kip1 staining of xenograft tumors; format: in vivo; conditions: 30 mg/kg every 3 days, 4 doses
# [8] = system: Ki67 in BT474-M3 breast tumor xenografts; assay: Ki67 staining of xenograft tumors; format: in vivo; conditions: 30 mg/kg every 3 days, 4 doses
# [9] = system: pAKT in BT-474-M3 xenografts that have reduced PTEN activity; assay: pAKT Western blot of PTEN deficient BT-474-M3 xenograft tumors; format: in vivo; conditions: 30 mg/kg B2B3-1 every 3 days or 10 mg/kg trastuzumab weekly
# Description: Equal quantities of protein are loaded in each lane and total protein levels are controlled by probing for PCNA.
# [10] = pharmacokinetics in Cynomolgus monkeys (dose range-finding toxicology study); format: in vivo, Cynomolgus monkey
# Experimental: Blood samples for pharmacokinetic analysis are also obtained from a dose range-finding toxicology study in female Cynomolgus monkeys. […] Sampling occurred prior to and 5 minutes after dosing on each dosing day (study days 1, 4, 7 and 10) to provide pre-dose and peak/trough concentrations, and at 1, 2, 4, 8, 24 and 48 hours after the end of the first infusion on day 1 and at 1, 2, 4, 8, 24, 48, 72 and 120 hours after the last infusion on day 10. For recovery animals dosed at 200 mg/kg serum samples are also collected at 168, 336 and 456 hours after the last infusion.
# Cynomolgus monkey serum samples are assayed using the ErbB2/ErbB3 ELISA method described previously.
# ErbB3 = ErbB3 (Homo sapiens, UniProt P04626+P21860); assay: inhibition of ligand-induced phosphorylation of ErbB3 (general statement); format: cell-based
# [11] = Cynomolgus monkey (1st dose), 4 mg/kg
# [12] = Cynomolgus monkey (1st dose), 20 mg/kg
# [13] = Cynomolgus monkey (1st dose), 200 mg/kg
# [14] = Cynomolgus monkey (4th dose), 4 mg/kg
# [15] = Cynomolgus monkey (4th dose), 20 mg/kg
# [16] = Cynomolgus monkey (4th dose), 200 mg/kg
# [17] = Cynomolgus monkey (4th dose), 200 mg/kg, recovery animals
substance,measurement,setting,value
B2B3-1: bispecific scFv antibody fusion: anti-ErbB3 scFv H3 and anti-ErbB2 scFv B1D2 joined by a modified human serum albumin (HSA) linker,population of cells in G1 phase,BT474 breast tumor cells,increase; also recorded: G1 arrest
same,population of cells in S phase,BT474 breast tumor cells,modestly decrease
same,inhibition of HRG induced ErbB3 phosphorylation,[1],inhibits
same,inhibition of HRG induced AKT phosphorylation,[2],inhibits
same,ErbB3 and phospho-ErbB3 precipitated by the anti-ErbB2 antibody,[3],crosslinks ErbB2 to ErbB3
same,"blocking of binding to ErbB3-coated plates by soluble extracellular domains of EGFR, ErbB2, ErbB3 or ErbB4",[4],only soluble ErbB3 extracellular domain blocked; also recorded: binds specifically
same,tumor size reduction,[5],efficacious
same,% pErbB3 inhibition in relation to ErbB2 expression levels,[6],correlates positively
same,nuclear staining for p27^kip1 compared to HSA control tumors,[7],Increased nuclear staining; also recorded: translocation of p27^kip1 to the nucleus
same,Ki67 expression compared to HSA treated tumors,[8],reduced expression pattern; also recorded: reduction
same,pAKT in tumors (densitometry of Western blot),[9],significantly less pAKT; also recorded: able to inhibit phosphorylation
same,AUC,[10]; [11],3.44E+03 hr-μg/ml
same,Clearance,[10]; [11],28.1 mL/day/kg
same,T½β,[10]; [11],39.1 h
same,AUC,[10]; [12],2.29E+04 hr-μg/ml
same,Clearance,[10]; [12],21.1 mL/day/kg
same,T½β,[10]; [12],33.1 h
same,AUC,[10]; [13],3.18E+05 hr-μg/ml
same,Clearance,[10]; [13],15.4 mL/day/kg
same,T½β,[10]; [13],68.8 h
same,AUC,[10]; [14],7.20E+03 hr-μg/ml
same,Clearance,[10]; [14],14.4 mL/day/kg
same,T½β,[10]; [14],44.9 h
same,AUC,[10]; [15],8.20E+04 hr-μg/ml
same,Clearance,[10]; [15],6 mL/day/kg
same,T½β,[10]; [15],122.5 h
same,AUC,[10]; [16],5.72E+05 hr-μg/ml
same,Clearance,[10]; [16],8.4 mL/day/kg
same,T½β,[10]; [16],69.7 h
same,AUC,[10]; [17],5.99E+05 hr-μg/ml
same,Clearance,[10]; [17],8.16 mL/day/kg
same,T½β,[10]; [17],66.6 h
same,Mean half-life estimates,"[10]; Cynomolgus monkey, day 1, 4, 20 or 200 mg/kg",38.3 to 67.2 h
same,potency of inhibition of ligand-induced phosphorylation of ErbB3,ErbB3,sub-nanomolar
